Assay results taken from paper PMC5986797 (2018).
Blank lines part the entries; values can stand above or below the binder they belong to.

Key:
Assay in all cases: ELISA
[1] = target: T1, laminin peptide LAMA4_(1408–1434) (Homo sapiens (Human), UniProt Q16363)
T1 chain: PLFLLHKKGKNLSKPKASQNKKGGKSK

[2] = target: T2, laminin peptide LAMA3_(3043–3067) (Homo sapiens (Human), UniProt Q16787)
T2 chain: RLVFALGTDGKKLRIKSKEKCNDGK

[3] = target: T3, laminin peptide LAMA5_(3417–3436) (Homo sapiens (Human), UniProt O15230)
T3 chain: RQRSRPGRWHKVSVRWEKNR

[4] = target: T4, laminin peptide LAMA5_(3539–3550) (Homo sapiens (Human), UniProt O15230)
T4 chain: TLPDVGLELEVR

[5] = target: T5, laminin peptide LAMA5_(3300–3330) (Homo sapiens (Human), UniProt O15230)
T5 chain: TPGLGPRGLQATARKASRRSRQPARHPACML

[6] = target: T6, laminin peptide LAMA4_(1521–1543) (Homo sapiens (Human), UniProt Q16363)
T6 chain: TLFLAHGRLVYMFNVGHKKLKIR

binding result [1]: binds
binding result [2]: binds
binding result [3]: binds
binding result [4]: no binding
binding result [5]: binds
binding result [6]: binds
B1: recombinant human syndecan-4 (protein)
chain: ESIRETEVIDPQDLLEGRYFSGALPDDEDVVGPGQESDDFELSGSGDLDDLEDSMIGPEVVHPLVPLDNHIPERAGSGSQVPTEPKKLEENEVIPKRISPVEESEDVSNKVSMSSTVQGSNIFERTE

binding result [1]: binds
binding result [2]: binds
binding result [3]: binds
binding result [4]: no binding
binding result [5]: binds
binding result [6]: binds
B2: recombinant human syndecan-2 (protein)
chain: ESRAELTSDKDMYLDNSSIEEASGVYPIDDDDYASASGSGADEDVESPELTTSRPLPKILLTSAAPKVETTTLNIQNKIPAQTKSPEETDKEKVHLSDSERKMDPAEEDTNVYTEKHSDSLFKRTE

binding result [1]: binds
binding result [2]: binds
binding result [3]: binds
binding result [4]: no binding
binding result [5]: binds
binding result [6]: binds
B3: recombinant human syndecan-1 (protein)
chain: QIVATNLPPEDQDGSGDDSDNFSGSGAGALQDITLSQQTPSTWKDTQLLTAIPTSPEPTGLEATAASTSTLPAGEGPKEGEAVVLPEVEPGLTAREQEATPRPRETTQLPTTHLASTTTATTAQEPATSHPHRDMQPGHHETSTPAGPSQADLHTPHTEDGGPSATERAAEDGASSQLPAAEGSGEQDFTFETSGENTAVVAVEPDRRNQSPVDQGATGASQGLLDRKEVLG
